Test results as given in patent US20260049279A1 (published 2026).

Biological target: T1, ALK peptide on H-2Dd (mouse)
T1 peptide: PGPGRVAKI
Assay: multimer staining

- binding result: recognises
B1: Clonotype_1 (Table 1) (TCR, V domains shown)
Valpha: QQKVQQSPESLSVPEGGMASFNCTSSDRNFQYFWWYRQHSGEGPKALMSIFSDGDKKEGRFTAHLNKASLHVSLHIRDSQPSDSALYFCAASEHGNNRIFFGDGTQLVVKP
Vbeta: ETAVFQTPNYHVTQVGNEVSFNCKQTLGHDTMYWYKQDSKKLLKIMFSYNNKQLIVNETVPRRFSPQSSDKAHLNLRIKSVEPEDSAVYLCASSQDWDEQYFGPGTRLTVL
